The values below come from the MegaScale stability set (Tsuboyama et al. 2023).

B1: EHEE_rd2_0196 (parent)
chain: TETRTFDSEEEAKKAQKEAEKQGRTVTITRRDDRWEVRFD

This data set covers variants of B1. Description: folding stability dG (cDNA display proteolysis); higher = more stable. To be noted: PBS, room temperature.
With TETRTFDSEEEAKKAQKEAEKQGRTVTITRRGDRWEVRFD [D32G], the “folding stability dG” value was found to be 3.98 kcal/mol. As to TETRTFDSEEEAKKAQKEAEKQGRTVTITRREDRWEVRFD [D32E], the “folding stability dG” value came to 3.07 kcal/mol. As to TETRTFDSEEEAKKAQKEAEKQGRTVTITRRWDRWEVRFD [D32W], the “folding stability dG” value came to 1.84 kcal/mol.

Consider TETRTFDSEEEAKKAQKEAEKQGRTVTITRRNDRWEVRFD [D32N], for which the “folding stability dG” value stood at 3.29 kcal/mol. Under TETRTFDSEEEAKKAQKEAEKQGRTVTITRRSDRWEVRFD [D32S] stands 2.45 kcal/mol; under TETRTFDSEEEAKKAQKEAEKQGRTVTITRRQDRWEVRFD [D32Q], 2.97 kcal/mol; under TETRTFDSEEEAKKAQKEAEKQGRTVTITRRKDRWEVRFD [D32K], 3.01 kcal/mol. On to TETRTFDSEEEAKKAQKEAEKQGRTVTITRRFDRWEVRFD [D32F], for which the “folding stability dG” value is 2.55 kcal/mol. TETRTFDSEEEAKKAQKEAEKQGRTVTITRHDDRWEVRFD [R31H]: the “folding stability dG” value was 2.69 kcal/mol. Regarding TETRTFDSEEEAKKAQKEAEKQGRTVTITRADDRWEVRFD [R31A], the “folding stability dG” value stood at 2.38 kcal/mol. Under TETRTFDSEEEAKKAQKEAEKQGRTVTITRLDDRWEVRFD [R31L] stands 2.9 kcal/mol; under TETRTFDSEEEAKKAQKEAEKQGRTVTITRFDDRWEVRFD [R31F], 2.75 kcal/mol; under TETRTFDSEEEAKKAQKEAEKQGRTVTITRKDDRWEVRFD [R31K], 3.13 kcal/mol. As to TETRTFDSEEEAKKAQKEAEKQGRTVTITRWDDRWEVRFD [R31W], the “folding stability dG” value came out at 2.18 kcal/mol. The figure for TETRTFDSEEEAKKAQKEAEKQGRTVTITRDDDRWEVRFD [R31D] is 1.79 kcal/mol; for TETRTFDSEEEAKKAQKEAEKQGRTVTITRGDDRWEVRFD [R31G] it is 1.68 kcal/mol.

TETRTFDSEEEAKKAQKEAEKQGRTVTITRNDDRWEVRFD [R31N]: the “folding stability dG” value turned out to be 2.57 kcal/mol.

Turning to TETRTFDSEEEAKKAQKEAEKQGRTVTITRSDDRWEVRFD [R31S], the “folding stability dG” value came out at 2.29 kcal/mol.

Turning to TETRTFDSEEEAKKAQKEAEKQGRTVTITRPDDRWEVRFD [R31P], the “folding stability dG” value was 0.846 kcal/mol. Take TETRTFDSEEEAKKAQKEAEKQGRTVTITRIDDRWEVRFD [R31I]: the “folding stability dG” value is 3.27 kcal/mol. For the variant TETRTFDSEEEAKKAQKEAEKQGRTVTITRMDDRWEVRFD [R31M], the “folding stability dG” value came to 2.78 kcal/mol. In the case of TETRTFDSEEEAKKAQKEAEKQGRTVTITREDDRWEVRFD [R31E], the “folding stability dG” value worked out at 2 kcal/mol. On to TETRTFDSEEEAKKAQKEAEKQGRTVTITRVDDRWEVRFD [R31V], for which the “folding stability dG” value is 3.43 kcal/mol. As for TETRTFDSEEEAKKAQKEAEKQGRTVTITRTDDRWEVRFD [R31T], the “folding stability dG” value is 2.56 kcal/mol. As to TETRTFDSEEEAKKAQKEAEKQGRTVTITRQDDRWEVRFD [R31Q], the “folding stability dG” value was 2.55 kcal/mol. For TETRTFDSEEEAKKAQKEAEKQGRTVTITRYDDRWEVRFD [R31Y], the “folding stability dG” value turned out to be 2.57 kcal/mol.

In the case of TETRTFDSEEEAKKAQKEAEKQGRTVTITRRDHRWEVRFD [D33H], the “folding stability dG” value came to 2.5 kcal/mol. For TETRTFDSEEEAKKAQKEAEKQGRTVTITRRDLRWEVRFD [D33L], the “folding stability dG” value was found to be 1.71 kcal/mol.

Consider TETRTFDSEEEAKKAQKEAEKQGRTVTITRRDNRWEVRFD [D33N], for which the “folding stability dG” value is 3.08 kcal/mol.

For the variant TETRTFDSEEEAKKAQKEAEKQGRTVTITRRDARWEVRFD [D33A], the “folding stability dG” value is 1.96 kcal/mol. The figure for TETRTFDSEEEAKKAQKEAEKQGRTVTITRRDKRWEVRFD [D33K] is 2.17 kcal/mol; for TETRTFDSEEEAKKAQKEAEKQGRTVTITRRDCRWEVRFD [D33C] it is 2.47 kcal/mol. With TETRTFDSEEEAKKAQKEAEKQGRTVTITRRDWRWEVRFD [D33W], the “folding stability dG” value turned out to be 1.34 kcal/mol. On to TETRTFDSEEEAKKAQKEAEKQGRTVTITRRDFRWEVRFD [D33F], for which the “folding stability dG” value stood at 1.55 kcal/mol. Consider TETRTFDSEEEAKKAQKEAEKQGRTVTITRRDYRWEVRFD [D33Y], for which the “folding stability dG” value turned out to be 1.48 kcal/mol. Take TETRTFDSEEEAKKAQKEAEKQGRTVTITRRDGRWEVRFD [D33G]: the “folding stability dG” value amounted to 3.39 kcal/mol.

In the case of TETRTFDSEEEAKKAQKEAEKQGRTVTITRRDSRWEVRFD [D33S], the “folding stability dG” value was 2.36 kcal/mol. For TETRTFDSEEEAKKAQKEAEKQGRTVTITRRDTRWEVRFD [D33T], the “folding stability dG” value is 2.09 kcal/mol. For the variant TETRTFDSEEEAKKAQKEAEKQGRTVTITRRDRRWEVRFD [D33R], the “folding stability dG” value came to 1.83 kcal/mol.

Regarding TETRTFDSEEEAKKAQKEAEKQGRTVTITRRDERWEVRFD [D33E], the “folding stability dG” value was 2.7 kcal/mol. For the variant TETRTFDSEEEAKKAQKEAEKQGRTVTITRRDMRWEVRFD [D33M], the “folding stability dG” value came to 1.95 kcal/mol. Turning to TETRTFDSEEEAKKAQKEAEKQGRTVTITRRDPRWEVRFD [D33P], the “folding stability dG” value came to 1.21 kcal/mol. With TETRTFDSEEEAKKAQKEAEKQGRTVTITRRDQRWEVRFD [D33Q], the “folding stability dG” value turned out to be 2.46 kcal/mol. Regarding TETRTFDSEEEAKKAQKEAEKQGRTVTITRRDVRWEVRFD [D33V], the “folding stability dG” value worked out at 1.4 kcal/mol.

As for TETRTFDSEEEAKKAQKEAEKQGRTVTITRRDIRWEVRFD [D33I], the “folding stability dG” value was 1.37 kcal/mol. As for TETRTFDSEEEAKKAQKEAEKQGRTVTIWRRDDRWEVRFD [T29W], the “folding stability dG” value came out at 1.8 kcal/mol. As to TETRTFDSEEEAKKAQKEAEKQGRTVTIRRRDDRWEVRFD [T29R], the “folding stability dG” value worked out at 2.76 kcal/mol. For the variant TETRTFDSEEEAKKAQKEAEKQGRTVTIDRRDDRWEVRFD [T29D], the “folding stability dG” value worked out at 1.71 kcal/mol. Turning to TETRTFDSEEEAKKAQKEAEKQGRTVTIPRRDDRWEVRFD [T29P], the “folding stability dG” value turned out to be 0.016 kcal/mol. On to TETRTFDSEEEAKKAQKEAEKQGRTVTIFRRDDRWEVRFD [T29F], for which the “folding stability dG” value stood at 2.3 kcal/mol. Take TETRTFDSEEEAKKAQKEAEKQGRTVTIKRRDDRWEVRFD [T29K]: the “folding stability dG” value stood at 2.44 kcal/mol. On to TETRTFDSEEEAKKAQKEAEKQGRTVTILRRDDRWEVRFD [T29L], for which the “folding stability dG” value is 2.53 kcal/mol. Under TETRTFDSEEEAKKAQKEAEKQGRTVTINRRDDRWEVRFD [T29N] stands 2.45 kcal/mol; under TETRTFDSEEEAKKAQKEAEKQGRTVTIHRRDDRWEVRFD [T29H], 2.75 kcal/mol; under TETRTFDSEEEAKKAQKEAEKQGRTVTIQRRDDRWEVRFD [T29Q], 2.59 kcal/mol. Consider TETRTFDSEEEAKKAQKEAEKQGRTVTIVRRDDRWEVRFD [T29V], for which the “folding stability dG” value is 3.16 kcal/mol. Take TETRTFDSEEEAKKAQKEAEKQGRTVTIMRRDDRWEVRFD [T29M]: the “folding stability dG” value was 2.48 kcal/mol. Turning to TETRTFDSEEEAKKAQKEAEKQGRTVTIGRRDDRWEVRFD [T29G], the “folding stability dG” value came out at 2.02 kcal/mol. Turning to TETRTFDSEEEAKKAQKEAEKQGRTVTIARRDDRWEVRFD [T29A], the “folding stability dG” value was 2.36 kcal/mol. The figure for TETRTFDSEEEAKKAQKEAEKQGRTVTIYRRDDRWEVRFD [T29Y] is 2.21 kcal/mol; for TETRTFDSEEEAKKAQKEAEKQGRTVTIERRDDRWEVRFD [T29E] it is 2.48 kcal/mol. On to TETRTFDSEEEAKKAQKEAEKQGRTVTIIRRDDRWEVRFD [T29I], for which the “folding stability dG” value was 3.19 kcal/mol. In the case of TETRTFDSEEEAKKAQKEAEKQGRTVTISRRDDRWEVRFD [T29S], the “folding stability dG” value came to 2.73 kcal/mol.
